The data set has as its target MtrR-MBP (Neisseria gonorrhoeae) (UniProt P39897). Nature of the data set: competition EMSA. Conditions: 30 ul reaction buffer (composition not stated), room temperature; 6% native PAGE at 4 C; 2 ug MtrR-MBP or 1 ug GdhR-His.

This is an account of results in publication PMC5388806.

Chain of MtrR-MBP (Neisseria gonorrhoeae) (P39897 whole entry): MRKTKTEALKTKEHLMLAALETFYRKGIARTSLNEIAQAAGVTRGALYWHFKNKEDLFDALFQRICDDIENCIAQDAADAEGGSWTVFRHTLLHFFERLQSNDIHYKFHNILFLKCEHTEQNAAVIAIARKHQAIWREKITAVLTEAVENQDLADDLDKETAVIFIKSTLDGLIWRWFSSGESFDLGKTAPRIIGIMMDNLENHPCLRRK

For “CCGTTCCCGCCGTCAACGGCACTTACCTCGCACCGCCCCCGAAACACAGGAAAAAACTACACCAAACTACAATTTTTGTTCATGCAAATATTTGTTTTAACGGGATTTAAATGAAAGCTCCGATTCAAATCTGCCGAACCGCCCAAAAATATATTGACCTGAATATTAAAGTTTCGTAAAGTAATGCAACGTTGCTTTAATTGGTTTGACCACTATTGCCGACGATTAGAAAAATATTTTCGGAGATGTTCAATTATGGAAACTTGGGTTCAAAACTACACGGCAATCGGCG (double strand) [R3/R5 (upstream of gdhR promoter)]”, the binding result was “no binding”.

In the case of “TGCCGTTGACGGCGGGAACGGCGTGTCATTAGAATCCGCCCTGATTGGCCAGTCCAATTTGATGTTTGATGTATTTCGGAAGGGTTCTGCAGGGAATCTTTATAAAGGAGGAGTGATGAAAC (double strand) [R4/R2 (gdhR promoter and downstream)]”, the binding result is on record as “binds”.
